Measured values taken from paper PMC6051491, “Dynamic structure mediates halophilic adaptation of a DNA polymerase from the deep-sea brines of the Red Sea”.

How the values were obtained:
Test in all cases: SPR; 100 mM NaCl; SPR (Biacore T100, SA chip, steady state): 20 mM Tris-HCl pH 8.8, 10 mM (NH4)2SO4, 0.1% Triton X-100, 100 or 300 mM NaCl; temperature not stated
KOD Pol WT = molecular target: T1, KOD Pol WT (Thermococcus kodakarensis, UniProt P77933 1-406+767-851+1389-1671, internal_change); conditions: protein: recombinant, tags: N-terminal His
T1 sequence: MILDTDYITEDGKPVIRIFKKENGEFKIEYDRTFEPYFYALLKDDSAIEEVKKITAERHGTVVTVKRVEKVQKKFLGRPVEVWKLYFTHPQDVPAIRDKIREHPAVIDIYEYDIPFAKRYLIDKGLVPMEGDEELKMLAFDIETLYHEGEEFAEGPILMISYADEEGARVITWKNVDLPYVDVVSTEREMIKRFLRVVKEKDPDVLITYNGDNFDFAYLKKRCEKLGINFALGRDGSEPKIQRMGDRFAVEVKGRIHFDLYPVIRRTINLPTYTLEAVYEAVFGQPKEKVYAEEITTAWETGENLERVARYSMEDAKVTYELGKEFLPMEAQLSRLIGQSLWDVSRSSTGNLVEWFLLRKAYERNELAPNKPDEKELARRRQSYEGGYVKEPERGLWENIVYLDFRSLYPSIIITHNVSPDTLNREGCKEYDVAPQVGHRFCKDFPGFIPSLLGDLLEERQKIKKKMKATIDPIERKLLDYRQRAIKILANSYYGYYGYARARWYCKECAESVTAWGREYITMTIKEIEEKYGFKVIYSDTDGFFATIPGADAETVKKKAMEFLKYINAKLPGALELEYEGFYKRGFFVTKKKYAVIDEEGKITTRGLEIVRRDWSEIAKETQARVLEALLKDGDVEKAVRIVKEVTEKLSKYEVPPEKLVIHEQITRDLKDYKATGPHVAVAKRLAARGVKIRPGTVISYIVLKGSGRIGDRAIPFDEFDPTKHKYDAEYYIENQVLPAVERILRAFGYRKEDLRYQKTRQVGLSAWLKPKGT

KODBR3exo Pol = molecular target: T2, KODBR3exo Pol (Thermococcus kodakarensis / BR3 chimera, UniProt P77933 1-130+A0A133VA65:160-367+329-406+767-851+1389-1671, internal_change); conditions: protein: recombinant; label: 3' biotin on template (immobilized); primer pairs with template 3' end; 5' overhang 23 nt of template
T2 sequence: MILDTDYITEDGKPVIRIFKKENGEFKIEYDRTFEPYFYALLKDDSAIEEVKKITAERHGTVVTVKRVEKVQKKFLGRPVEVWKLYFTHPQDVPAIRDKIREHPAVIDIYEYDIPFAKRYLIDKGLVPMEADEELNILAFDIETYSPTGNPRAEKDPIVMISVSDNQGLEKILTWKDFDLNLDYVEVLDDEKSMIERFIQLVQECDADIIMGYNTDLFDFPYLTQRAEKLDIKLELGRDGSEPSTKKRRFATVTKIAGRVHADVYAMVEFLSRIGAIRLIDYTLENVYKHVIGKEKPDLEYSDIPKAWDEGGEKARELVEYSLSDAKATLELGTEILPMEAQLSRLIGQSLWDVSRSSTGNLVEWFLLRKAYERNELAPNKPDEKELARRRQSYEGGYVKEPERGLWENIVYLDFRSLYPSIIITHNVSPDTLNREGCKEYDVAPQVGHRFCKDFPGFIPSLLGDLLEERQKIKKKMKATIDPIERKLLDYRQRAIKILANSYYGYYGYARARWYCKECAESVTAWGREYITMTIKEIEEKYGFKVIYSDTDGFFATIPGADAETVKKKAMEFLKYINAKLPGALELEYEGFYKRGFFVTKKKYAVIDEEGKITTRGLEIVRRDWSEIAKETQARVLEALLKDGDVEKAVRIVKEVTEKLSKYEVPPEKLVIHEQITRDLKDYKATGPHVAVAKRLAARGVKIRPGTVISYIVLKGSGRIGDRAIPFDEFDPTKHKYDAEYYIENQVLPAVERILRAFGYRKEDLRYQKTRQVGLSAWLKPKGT

KODBR3thumb Pol = molecular target: T3, KODBR3thumb Pol (Thermococcus kodakarensis / BR3 chimera, UniProt P77933 1-406+767-851+1389-1479+A0A133VA65:621-805, internal_change); conditions: protein: recombinant; label: 3' biotin on template (immobilized); primer pairs with template 3' end; 5' overhang 23 nt of template
T3 sequence: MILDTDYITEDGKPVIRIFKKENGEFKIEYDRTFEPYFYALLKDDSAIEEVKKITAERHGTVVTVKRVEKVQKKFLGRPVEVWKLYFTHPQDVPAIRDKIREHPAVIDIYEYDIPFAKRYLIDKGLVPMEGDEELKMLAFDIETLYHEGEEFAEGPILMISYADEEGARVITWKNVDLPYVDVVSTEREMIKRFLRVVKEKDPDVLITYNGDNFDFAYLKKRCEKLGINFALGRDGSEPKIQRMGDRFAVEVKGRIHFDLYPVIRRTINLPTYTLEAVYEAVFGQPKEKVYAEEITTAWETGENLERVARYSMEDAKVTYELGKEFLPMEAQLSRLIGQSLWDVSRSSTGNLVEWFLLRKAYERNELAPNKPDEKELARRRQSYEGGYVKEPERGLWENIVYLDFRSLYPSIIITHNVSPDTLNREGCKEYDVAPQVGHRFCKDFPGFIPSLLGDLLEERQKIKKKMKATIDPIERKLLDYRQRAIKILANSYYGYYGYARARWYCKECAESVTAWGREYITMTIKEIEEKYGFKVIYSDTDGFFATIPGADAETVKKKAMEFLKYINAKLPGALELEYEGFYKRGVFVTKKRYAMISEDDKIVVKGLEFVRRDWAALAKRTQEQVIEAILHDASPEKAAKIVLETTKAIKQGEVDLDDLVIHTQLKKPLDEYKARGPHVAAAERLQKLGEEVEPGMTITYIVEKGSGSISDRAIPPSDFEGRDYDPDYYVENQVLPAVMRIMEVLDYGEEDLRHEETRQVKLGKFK

B1: primer/template (mixed)
DNA 1: GAGGTGGCGTCGGGTGGACGGGTGGATTGAAATTTAGGCTGGCAC
DNA 2: GTGCCAGCCTAAATTTCAATCC
KOD Pol WT; label: 3' biotin on template (immobilized), primer pairs with template 3' end, 5' overhang 23 nt of template
  Kd: 3.5 nM
KODBR3exo Pol
  Kd: 6.5 nM
KODBR3thumb Pol
  Kd: 12.5 nM

B2: dsDNA (dsDNA)
DNA 1: B1 DNA 1
DNA 2: GTGCCAGCCTAAATTTCAATCCACCCGTCCACCCGACGCCACCTC
KOD Pol WT; label: 3' biotin on strand 1 (immobilized), blunt
  Kd: 239 nM

B3: ssDNA (ssDNA)
DNA: TTTTTTTTTTTTTTTTTTTTTTTTTTTTTTTTTTTTTTTT
KOD Pol WT; label: 5' biotin (immobilized)
  Kd: 32.8 nM
